From paper PMC7846277

Target: microtubules grown from purified bovine brain tubulin (bovine) (UniProt Q6B856)
Experiment: laser trap (optical trap) rupture force assay; kinetochore particles on anti-His5 beads (7.5 nM Dsn1-His-Flag), placed at the ends of microtubules growing from coverslip-anchored seeds; BRB80 growth buffer with 1 mM GTP, 1.5 mg/mL tubulin; force ramp 0.25 pN/s; 23°C

Chain of UniProt Q6B856 (Q6B856 whole entry, looked up): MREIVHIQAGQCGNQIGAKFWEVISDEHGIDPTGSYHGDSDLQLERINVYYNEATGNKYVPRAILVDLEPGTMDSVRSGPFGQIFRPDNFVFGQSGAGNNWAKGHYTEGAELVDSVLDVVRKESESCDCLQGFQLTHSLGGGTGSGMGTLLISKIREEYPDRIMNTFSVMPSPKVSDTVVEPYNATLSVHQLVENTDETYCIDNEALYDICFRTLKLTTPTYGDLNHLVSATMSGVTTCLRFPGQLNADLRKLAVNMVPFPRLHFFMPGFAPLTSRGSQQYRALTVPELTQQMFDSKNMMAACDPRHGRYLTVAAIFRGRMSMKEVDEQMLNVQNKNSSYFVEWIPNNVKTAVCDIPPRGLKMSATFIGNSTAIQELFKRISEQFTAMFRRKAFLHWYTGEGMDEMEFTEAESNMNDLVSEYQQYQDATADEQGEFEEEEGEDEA

Wild-type kinetochore particles from mitotic metaphase cells (from UniProt P40568 1-576) (complex)
mean rupture force: 9 pN

Wild-type meiotic metaphase I kinetochore particles (from UniProt P40568 1-576) (complex)
mean rupture force: 12 pN
